Measured values: publication PMC3518449 (The Biochemical journal, 2012)
Where “and” joins values, the source holds several entries; their conditions need not be identical. Equal values may be shown once. Each block holds one binder with its values, some of them ahead of it.

Key:
cross-linking = target: the molecule itself; experiment: cross-linking
CYP1A2 = target: T1, CYP1A2 (Oryctolagus cuniculus, UniProt P00187); experiment: enzyme activity titration
T1 chain: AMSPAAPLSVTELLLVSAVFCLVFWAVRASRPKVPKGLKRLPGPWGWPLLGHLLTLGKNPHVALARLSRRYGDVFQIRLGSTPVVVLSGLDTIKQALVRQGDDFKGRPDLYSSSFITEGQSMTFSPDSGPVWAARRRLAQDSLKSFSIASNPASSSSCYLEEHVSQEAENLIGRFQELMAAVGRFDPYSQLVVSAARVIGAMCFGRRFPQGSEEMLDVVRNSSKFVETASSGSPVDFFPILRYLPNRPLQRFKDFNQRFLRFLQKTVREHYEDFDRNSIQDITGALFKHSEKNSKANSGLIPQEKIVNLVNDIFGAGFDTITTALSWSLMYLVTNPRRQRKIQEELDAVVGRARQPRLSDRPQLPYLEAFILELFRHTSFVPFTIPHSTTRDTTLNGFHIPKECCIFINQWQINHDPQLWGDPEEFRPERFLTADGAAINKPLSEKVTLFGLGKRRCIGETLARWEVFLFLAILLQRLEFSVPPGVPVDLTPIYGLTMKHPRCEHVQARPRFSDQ

B1: Cytochrome P450 1A2 (CYP1A2), isolated from rabbit liver microsomes (enzyme, UniProt P00187 1-516, looked up)
chain: MAMSPAAPLSVTELLLVSAVFCLVFWAVRASRPKVPKGLKRLPGPWGWPLLGHLLTLGKNPHVALARLSRRYGDVFQIRLGSTPVVVLSGLDTIKQALVRQGDDFKGRPDLYSSSFITEGQSMTFSPDSGPVWAARRRLAQDSLKSFSIASNPASSSSCYLEEHVSQEAENLIGRFQELMAAVGRFDPYSQLVVSAARVIGAMCFGRRFPQGSEEMLDVVRNSSKFVETASSGSPVDFFPILRYLPNRPLQRFKDFNQRFLRFLQKTVREHYEDFDRNSIQDITGALFKHSEKNSKANSGLIPQEKIVNLVNDIFGAGFDTITTALSWSLMYLVTNPRRQRKIQEELDAVVGRARQPRLSDRPQLPYLEAFILELFRHTSFVPFTIPHSTTRDTTLNGFHIPKECCIFINQWQINHDPQLWGDPEEFRPERFLTADGAAINKPLSEKVTLFGLGKRRCIGETLARWEVFLFLAILLQRLEFSVPPGVPVDLTPIYGLTMKHPRCEHVQARPRFSDQ
stoichiometry N (cross-linking): 2 and 4 and 5 and 6

Kd (CYP1A2): 12 nM
B2: POR (protein)
chain: MADSHGDTGATMPEAAAQEASVFSMTDVVLFSLIVGLITYWFLFRKKKEEVPEFTKIQAPTSSSVKESSFVEKMKKTGRNIVVFYGSQTGTAEEFANRLSKDAHRYGMRGMAADPEEYDLADLSSLPEINNALAVFCMATYGEGDPTDNAQDFYDWLQETDVDLSGVKYAVFGLGNKTYEHFNAMGKYVDQRLEQLGAQRIFELGMGDDDANLEEDFITWREQFWPAVCEHFGVEATGEESSIRQYELVLHTDIDVAKVYQGEMGRLKSYENQKPPFDAKNPFLATVTTNRKLNQGTERHLMHLELDISDSKIRYESGDHVAVYPANDSALVNQLGEILGADLDVVMSLNNLDEESNKKHPFPCPTSYRTALTYYLDITNPPRTNVLYELAQYAADPAEQEQLRKMASSSGEGKELYLSWVVEARRHILAILQDYPSLRPPIDHLCELLPRLQARYYSIASSSKVHPNSVHICAVAVEYETKAGRLNKGVATSWLRAKEPAGENGGRALVPMFVRKSQFRLPFKATTPVIMVGPGTGVAPFIGFIQERAWLRQQGKEVGETLLYYGCRRAAEDYLYREELAGFQKDGTLSQLNVAFSREQAQKVYVQHLLRRDKEHLWRLIHEGGAHIYVCGDARNMARDVQNTFYDIVAELGAMEHAQAVDYVKKLMTKGRYSLDVWS
